Experimental data: article PMC4137956

Tests used:
Experiment in all cases: SPR; biotinylated SIRPα variants bound to streptavidin immobilised on a BIAcore CM5 chip, BIAcore 3000, 37°; dilutions of monomeric recombinant CD47 extracellular domain passed over; affinity from equilibrium binding
[1] = target: human SIRPα V2, three extracellular IgSF domains (3d) (human) (UniProt P78324)
[2] = target: NOD mouse SIRPα, N-terminal domain (d1), wild type (mouse)
[3] = target: NOD mouse SIRPα + SE mutant, three extracellular IgSF domains (3d) (mouse)
[4] = target: NOD mouse SIRPα + SE mutant, N-terminal domain (d1) (mouse)

Chain of NOD mouse SIRPα, N-terminal domain (d1), wild type (mouse) (P97797 1-148): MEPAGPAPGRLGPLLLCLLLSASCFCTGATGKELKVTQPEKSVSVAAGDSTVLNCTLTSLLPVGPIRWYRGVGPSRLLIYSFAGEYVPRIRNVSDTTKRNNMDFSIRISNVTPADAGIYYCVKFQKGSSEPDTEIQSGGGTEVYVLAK
Chain of mouse CD47 IgSF domain, monomeric recombinant extracellular domain (Q61735 19-139): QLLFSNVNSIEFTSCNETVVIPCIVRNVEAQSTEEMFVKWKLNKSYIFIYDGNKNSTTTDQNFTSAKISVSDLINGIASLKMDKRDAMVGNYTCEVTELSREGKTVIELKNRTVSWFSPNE
Chain of human CD47 IgSF domain, monomeric recombinant extracellular domain (Q08722 19-136): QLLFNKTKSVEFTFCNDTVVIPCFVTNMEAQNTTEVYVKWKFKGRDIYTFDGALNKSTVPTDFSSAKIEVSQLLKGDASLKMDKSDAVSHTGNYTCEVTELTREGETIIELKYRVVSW

Kd [1] [µM] | Kd [2] [µM] | Kd [3] [µM] | Kd [4] [µM] | Substance
0.6 | 0.08 | 7.6 | 9.4 | human CD47 IgSF domain, monomeric recombinant extracellular domain (from UniProt Q08722-1 19-136) (domain or fragment)
> 30 | 4.7 | 8.6 | 11.8 | mouse CD47 IgSF domain, monomeric recombinant extracellular domain (from UniProt Q61735 19-139) (domain or fragment)
